In patent US20260297181 (published 2026):
Where two headings read alike, the source gives them in different places.

Columns and labels:
[1] = biological target: T1, insulin (human, UniProt P01308); assay: BLI
[2] = biological target: T1, insulin; assay: BLI; remark: listed apart in the source

T1 sequence (P01308 25-54, chain 1 of 2): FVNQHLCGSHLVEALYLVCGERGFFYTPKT
T1 sequence (P01308 90-110, chain 2 of 2): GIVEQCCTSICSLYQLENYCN

| Binder | Kd [1] | Kd [2] |
| --- | --- | --- |
| WT anti-insulin scFv (HB125) (antibody) MAQIQLVQSGPELKKPGETVKISCKASGYTFTDYSMHWVKQAPGKGLKWMDWINTETGVPTYADDFKGRFAFSLETSANTAYLQINDLKNEDTATYFCTRGYGKGYFDVWGAGTTVTVSSAKSTPPSVYPLAPGSGGGGSGGGGSGGGGSQIVLTQSPTIMSASLGERVTMTCTASSSVSSSYLHWYQQKPGSSPKLWIYSTSNLASGVPARFSGSGSGTSYSLTISSMEAEDAATYYCHQYHRSPPTFGAGTKLELKRADAA | 55.2 nM | 55.2 nM |
| gsLOV (antibody) MAQIQLVQSGPELKKPGETVKISCKASGYTFTDYSMHWVKQAPGKGLKWMDWINTETGVPTYADDFKGRFAFSLETSANTAYLQINDLKNEDTATYFCTRGYGKGYFDVWGAGTTVTVSSAKSTPPSVYPLAPGSGGGGSGEFLATTLERIEKNFVITDPRLPDNPIIFASDSFLQLTEYSREEILGRNCRFLQGPETDRATVRKIRDAIDNQTEVTVQLINYTKSGKKFWNLFHLQPMRDQKGDVQYFIGVQLDGTEHVRDAAEREAVMLIKKTAEEIDEAAKELGGGGSQIVLTQSPTIMSASLGERVTMTCTASSSVSSSYLHWYQQKPGSSPKLWIYSTSNLASGVPARFSGSGSGTSYSLTISSMEAEDAATYYCHQYHRSPPTFGAGTKLELKRADAAKL | 100 nM |  |
| gsLOV I272E, A276E "light" (antibody) MAQIQLVQSGPELKKPGETVKISCKASGYTFTDYSMHWVKQAPGKGLKWMDWINTETGVPTYADDFKGRFAFSLETSANTAYLQINDLKNEDTATYFCTRGYGKGYFDVWGAGTTVTVSSAKSTPPSVYPLAPGSGGGGSGEFLATTLERIEKNFVITDPRLPDNPIIFASDSFLQLTEYSREEILGRNCRFLQGPETDRATVRKIRDAIDNQTEVTVQLINYTKSGKKFWNLFHLQPMRDQKGDVQYFIGVQLDGTEHVRDAAEREAVMLEKKTEEEIDEAAKELGGGGSQIVLTQSPTIMSASLGERVTMTCTASSSVSSSYLHWYQQKPGSSPKLWIYSTSNLASGVPARFSGSGSGTSYSLTISSMEAEDAATYYCHQYHRSPPTFGAGTKLELKRADAAKL | 63.8 nM |  |
| gsLOV C190A "dark" (antibody) MAQIQLVQSGPELKKPGETVKISCKASGYTFTDYSMHWVKQAPGKGLKWMDWINTETGVPTYADDFKGRFAFSLETSANTAYLQINDLKNEDTATYFCTRGYGKGYFDVWGAGTTVTVSSAKSTPPSVYPLAPGSGGGGSGEFLATTLERIEKNFVITDPRLPDNPIIFASDSFLQLTEYSREEILGRNARFLQGPETDRATVRKIRDAIDNQTEVTVQLINYTKSGKKFWNLFHLQPMRDQKGDVQYFIGVQLDGTEHVRDAAEREAVMLIKKTAEEIDEAAKELGGGGSQIVLTQSPTIMSASLGERVTMTCTASSSVSSSYLHWYQQKPGSSPKLWIYSTSNLASGVPARFSGSGSGTSYSLTISSMEAEDAATYYCHQYHRSPPTFGAGTKLELKRADAAKL | 104 nM |  |

Now from value to binder:

| Kd [1] | Kd [2] | Binder |
| --- | --- | --- |
|  | 198 nM | nolinkLOV C185A "dark" (antibody) MAQIQLVQSGPELKKPGETVKISCKASGYTFTDYSMHWVKQAPGKGLKWMDWINTETGVPTYADDFKGRFAFSLETSANTAYLQINDLKNEDTATYFCTRGYGKGYFDVWGAGTTVTVSSAKSTPPSVYPLAPGSGEFLATTLERIEKNFVITDPRLPDNPIIFASDSFLQLTEYSREEILGRNARFLQGPETDRATVRKIRDAIDNQTEVTVQLINYTKSGKKFWNLFHLQPMRDQKGDVQYFIGVQLDGTEHVRDAAEREAVMLIKKTAEEIDEAAKELQIVLTQSPTIMSASLGERVTMTCTASSSVSSSYLHWYQQKPGSSPKLWIYSTSNLASGVPARFSGSGSGTSYSLTISSMEAEDAATYYCHQYHRSPPTFGAGTKLELKRADAAKL |
|  | 68.7 nM | nolinkLOV I267E, A271E "light" (antibody) MAQIQLVQSGPELKKPGETVKISCKASGYTFTDYSMHWVKQAPGKGLKWMDWINTETGVPTYADDFKGRFAFSLETSANTAYLQINDLKNEDTATYFCTRGYGKGYFDVWGAGTTVTVSSAKSTPPSVYPLAPGSGEFLATTLERIEKNFVITDPRLPDNPIIFASDSFLQLTEYSREEILGRNCRFLQGPETDRATVRKIRDAIDNQTEVTVQLINYTKSGKKFWNLFHLQPMRDQKGDVQYFIGVQLDGTEHVRDAAEREAVMLEKKTEEEIDEAAKELQIVLTQSPTIMSASLGERVTMTCTASSSVSSSYLHWYQQKPGSSPKLWIYSTSNLASGVPARFSGSGSGTSYSLTISSMEAEDAATYYCHQYHRSPPTFGAGTKLELKRADAAKL |
|  | 78.5 nM | nolinkLOV (antibody) MAQIQLVQSGPELKKPGETVKISCKASGYTFTDYSMHWVKQAPGKGLKWMDWINTETGVPTYADDFKGRFAFSLETSANTAYLQINDLKNEDTATYFCTRGYGKGYFDVWGAGTTVTVSSAKSTPPSVYPLAPGSGEFLATTLERIEKNFVITDPRLPDNPIIFASDSFLQLTEYSREEILGRNCRFLQGPETDRATVRKIRDAIDNQTEVTVQLINYTKSGKKFWNLFHLQPMRDQKGDVQYFIGVQLDGTEHVRDAAEREAVMLIKKTAEEIDEAAKELQIVLTQSPTIMSASLGERVTMTCTASSSVSSSYLHWYQQKPGSSPKLWIYSTSNLASGVPARFSGSGSGTSYSLTISSMEAEDAATYYCHQYHRSPPTFGAGTKLELKRADAAKL |
